One block for each binder: values may come before it.
Legend:
[1] = target: T1, soluble complex of the extracellular domain of human GARP and human LAP-TGFβ1 (human, UniProt Q14392 20-627); assay: BLI, component 1
T1 construct: extracellular domain; also called sGARP-LAP-TGFβ1; sGARP-LAP
Experimental: A streptavidin-functionalized tip was equilibrated in binding buffer (10 mM sodium phosphate, 150 mM sodium chloride, 1% (w/v) bovine serum albumin, 0.05% (w/v) sodium azide, pH 7.4) and dipped in a 5 μg/mL solution of biotinylated antibody (i.e., 20E6_H0.2aL1_hIgG1, murine 16F4, or MHG8, a GARP-specific murine IgG2a described in Lienart et al. Science 2018; 362:952-956) in binding buffer for 30 seconds to load the tip with antibody. The antibody-loaded tip was then washed in binding buffer and placed in a solution containing 0-24 nM of a fusion protein containing a human IgG1 Fc domain fused to either human LAP-TGFβ1, the soluble GARP-LAP-TGFβ1 complex, or the soluble ECR3E-LAP-TGFβ1 complex. The antigen was allowed to bind to antibody for 5 minutes (association phase), and then the tip was moved to binding buffer (dissociation phase). The binding and dissociation data for 16F4 and MHG8 were well-fit by a 1:1 binding model. The association and dissociation phases for 20E6_H0.2aL1_hIgG1 antibody were fit to a 2:1 heterogenous ligand binding model to determine the binding rate constants.
As shown in FIG. 24 and Table 21, the 20E6_H0.2aL1_hIgG1 antibody bound to free LAP-TGFβ1 and the soluble GARP-LAP-TGFβ1 complex with nanomolar affinity, but not to the ECR3E-LAP-TGFβ1 complex. As expected, the anti-GARP antibody (MHG8) bound to the GARP-LAP-TGFβ1 complex, but not to free LAP-TGFβ1 or the ECR3E-LAP-TGFβ1 complex. 16F4 bound tightly to all three constructs.

[2] = target: T2, fusion protein of a human IgG1 Fc domain and human LAP-TGFβ1 (human, UniProt P01137 30-390); assay: BLI, antibody on tip, 1:1 model
T2 construct: printed both as Fc-huB1 and LAP-TGFβ-Fc; also called Fc-huB1; Fc-human LAP
Experimental: (§1) The chimeric antibodies were biotinylated using EZ-Link SulfoNHS-LC-Biotin (ThermoFisher). A streptavidin-functionalized tip was equilibrated in binding buffer (10 mM sodium phosphate, 150 mM sodium chloride, 1% (w/v) bovine serum albumin, 0.05% (w/v) sodium azide, pH 7.4). The tip was dipped in a 10 μg/mL solution of biotinylated, chimeric anti-LAP in binding buffer for 15 seconds to load the tip with antibody. The antibody-loaded tip was then washed in binding buffer and placed in a solution containing 0-24 nM of LAP-TGFβ1 (either a fusion protein containing a human IgG1 Fc domain fused to human LAP-TGFβ1 or a murine LAP-TGFβ1 with a C-terminal polyhistidine purification tag). The antigen was allowed to bind to antibody for 5 minutes (association phase), and then the tip was moved to binding buffer (dissociation phase). The association and dissociation phases were fit to a 1:1 binding model to determine the binding rate constants.

[3] = target: T3, murine LAP-TGFβ1 with a C-terminal polyhistidine purification tag (mouse, UniProt P04202 30-390); assay: BLI, antibody on tip, 1:1 model
T3 construct: also called Mouse LAP-TGFβ1
Experimental: as §1

[4] = target: T4, human LAP-TGFβ3 overexpressed on HT1080 cells (human, UniProt P10600 24-412); assay: flow cytometry titration, HT1080-huB3 cells
T4 construct: also called HT1080-huB3
T4 sequence: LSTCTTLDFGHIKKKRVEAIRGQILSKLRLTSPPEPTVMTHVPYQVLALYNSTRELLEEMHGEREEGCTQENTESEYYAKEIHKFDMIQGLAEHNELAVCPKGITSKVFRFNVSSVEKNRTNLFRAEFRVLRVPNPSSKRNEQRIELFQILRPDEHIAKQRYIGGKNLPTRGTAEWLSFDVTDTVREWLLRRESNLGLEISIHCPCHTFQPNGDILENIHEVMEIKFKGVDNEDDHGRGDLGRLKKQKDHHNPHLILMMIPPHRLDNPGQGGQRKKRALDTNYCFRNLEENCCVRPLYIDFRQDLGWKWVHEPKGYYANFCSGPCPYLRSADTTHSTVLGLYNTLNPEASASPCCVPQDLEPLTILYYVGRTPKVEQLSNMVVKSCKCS
Experimental: This Example describes the binding of anti-LAP antibodies to LAP-TGFβ isoforms and LAP-TGFβ variants. In addition to antibodies 28G11_hIgG1, 22F9_hIgG1, and 20E6_hIgG1, anti-LAP antibodies 17G8_hIgG1, 24E3_hIgG1, and 2C9_(hyb) were also tested in this experiment. Briefly, 4×10⁵ each of (a) HT1080 cells, (b) HT1080 cells overexpressing human LAP-TGFβ1, (c) HT1080 cells overexpressing human LAP-TGFβ2, (d) HT1080 cells overexpressing human LAP-TGFβ3, (e) HT1080 cells overexpressing murine LAP-TGFβ1, (f) P3U1 cells, (g) P3U1 cells overexpressing LAP-TGFβ1 and GARP, and (h) P3U1 cells overexpressing LAP-TGFβ1 and LRRC33 were cultured in 96-well plates. The plates were centrifuged for 5 min at 1,500 rpm, liquid was removed, and cells were resuspended with 200 μL FACS buffer. The plates were centrifuged again, diluted primary antibody was added to each well, and the plates were incubated on ice for 20 minutes, followed by centrifugation. The cells were resuspended in 200 μL FACS buffer, centrifuged again, and resuspended in 50 μL diluted secondary antibody (Alexa647-anti-Human IgG or APC-anti-Mouse IgG). The plates were incubated on ice for 20 minutes in the dark, washed twice with 200 μL FACS buffer, and cells from each well (in 200 μL FACS buffer) were read on the Attune NXT instrument.

T3 sequence (P04202 30-390 limits assumed): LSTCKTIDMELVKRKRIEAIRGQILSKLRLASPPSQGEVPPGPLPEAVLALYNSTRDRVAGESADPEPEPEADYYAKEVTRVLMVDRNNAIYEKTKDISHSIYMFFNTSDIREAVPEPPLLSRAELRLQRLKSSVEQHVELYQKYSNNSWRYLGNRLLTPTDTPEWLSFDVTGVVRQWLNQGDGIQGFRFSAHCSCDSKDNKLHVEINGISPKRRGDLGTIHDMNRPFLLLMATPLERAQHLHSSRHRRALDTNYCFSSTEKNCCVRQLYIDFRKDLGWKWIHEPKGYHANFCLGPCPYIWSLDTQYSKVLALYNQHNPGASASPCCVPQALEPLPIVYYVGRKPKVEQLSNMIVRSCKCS
T2 sequence (P01137 30-390 limits assumed): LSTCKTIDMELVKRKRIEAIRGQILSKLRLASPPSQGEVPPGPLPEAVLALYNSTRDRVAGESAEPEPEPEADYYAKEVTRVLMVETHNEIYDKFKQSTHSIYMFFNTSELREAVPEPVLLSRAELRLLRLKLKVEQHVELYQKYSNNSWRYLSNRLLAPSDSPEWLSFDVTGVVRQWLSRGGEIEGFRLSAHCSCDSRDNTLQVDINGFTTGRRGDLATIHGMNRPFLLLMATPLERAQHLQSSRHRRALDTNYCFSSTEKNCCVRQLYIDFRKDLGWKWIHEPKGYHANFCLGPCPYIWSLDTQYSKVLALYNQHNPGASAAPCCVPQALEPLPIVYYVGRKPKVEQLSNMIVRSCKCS
T1 sequence (chain, as listed by the source limits assumed, chain 1 of 2): as the sequence (P01137 30-390 limits assumed) above
T1 sequence (Q14392 20-627 limits assumed, chain 2 of 2): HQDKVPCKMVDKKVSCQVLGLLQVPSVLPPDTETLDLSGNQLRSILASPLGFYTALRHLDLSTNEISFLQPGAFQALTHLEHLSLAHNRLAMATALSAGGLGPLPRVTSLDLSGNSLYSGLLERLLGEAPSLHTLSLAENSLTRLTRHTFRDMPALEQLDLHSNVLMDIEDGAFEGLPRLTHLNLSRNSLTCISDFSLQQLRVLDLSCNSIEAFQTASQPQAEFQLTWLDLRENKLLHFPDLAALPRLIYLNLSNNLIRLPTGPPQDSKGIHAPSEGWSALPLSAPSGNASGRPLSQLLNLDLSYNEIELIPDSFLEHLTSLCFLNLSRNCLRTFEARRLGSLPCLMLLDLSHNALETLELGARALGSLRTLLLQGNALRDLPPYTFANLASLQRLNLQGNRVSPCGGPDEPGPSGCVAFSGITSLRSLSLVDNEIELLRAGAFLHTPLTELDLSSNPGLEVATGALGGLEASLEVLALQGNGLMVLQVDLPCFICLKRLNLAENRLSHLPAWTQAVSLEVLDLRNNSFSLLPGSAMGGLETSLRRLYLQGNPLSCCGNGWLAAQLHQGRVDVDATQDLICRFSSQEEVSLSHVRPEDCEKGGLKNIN

Kd [1]: 18.7 nM
koff [1]: 0.0518 s⁻¹
kon [1]: 2.77e+06 M⁻¹ s⁻¹
B1: 20E6_H0.2aL1_hIgG1 (antibody)
heavy: not shown
light: DIQMTQSPSSLSASVGDRVTITCRASQDITNYLNWYQQKPGKAVKLLIYYTSRLHSGVPSRFSGSGSGTDYTLTISSLQPEDFATYFCQQGDTLPWTFGQGTKLEIKRTVAAPSVFIFPPSDEQLKSGTASVVCLLNNFYPREAKVQWKVDNALQSGNSQESVTEQDSKDSTYSLSSTLTLSKADYEKHKVYACEVTHQGLSSPVTKSFNRGEC
notes: also called 20E6_H0.2aL1_IgG1; humanized 20E6

Kd [2]: 0.76 nM
koff [2]: 0.000768 s⁻¹
kon [2]: 1.01e+06 M⁻¹ s⁻¹
Kd [3]: 0.37 nM
koff [3]: 0.000444 s⁻¹
kon [3]: 1.21e+06 M⁻¹ s⁻¹
binding result [4]: no binding (tested: about 800 ng/well)
B2: 22F9_hIgG1 (antibody, V domains shown)
VH: QVQLQQPGAELVKPGASVKLSCKASGYTFTSYWMHWVKQRPGQGLEWIGMIHPNSGSTNYNEKFKSKATLTVDKSSSTAYMQLSSLTSEDSAVYYCAYYDYDGFFDVWGTGTTVTVSS
VL: DIVLTQSPASLDVSLGQRATISCRASKSVSTSGYSYMHWYQQKSGQPPKLLIYLASNLESGVPARFSGSGSGTHFTLNIHPVEEEDAATYYCQHSRELPYTFGGGTKLEIK

From patent publication US20220017612A1 (TILOS THERAPEUTICS, published 2022)
